Laboratory results: the supplement of paper PMC7125110
± gives the standard error. Variants at the floor of the assay were thinned out.

B1: glmS ribozyme (parent)
chain: AUAAAAGCGCCAGAACUACAGAAAUGUAGUUGACGAGGAGGAGGUUUAUCGAAUUUUCGGCGGAUGCCUCCAAA

Columns and labels:
Settings in all cases: with glucosamine-6-phosphate
[1] = variants of: B1; assay: self-cleavage kobs at 40 uM GlcN6P; higher = faster cleavage; RNA array
Summary of the method: (§1)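 Tiles of sequenced MiSeq chips were imaged over ~14 h at 37 °C. On them, barcoded ribozyme variants had been transcribed in situ by E. coli RNA polymerase and were tracked via a hybridised Cy3 probe while glucosamine-6-phosphate (40 μM to 10 mM) in HEPES/KCl/Mg(OAc)2 buffer flowed in. Per-tile medians, normalised to baseline and to non-cleaving reference variants, were fit to one- or two-exponential decays for kobs, and weighted Michaelis–Menten fits gave kcat and KM.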

[2] = variants of: B1; assay: self-cleavage kobs at 160 uM GlcN6P; higher = faster cleavage; RNA array
Summary of the method: as §1

[3] = variants of: B1; assay: self-cleavage kobs at 640 uM GlcN6P; higher = faster cleavage; RNA array
Summary of the method: as §1

[4] = variants of: B1; assay: self-cleavage kobs at 2500 uM GlcN6P; higher = faster cleavage; RNA array
Summary of the method: as §1

[5] = variants of: B1; assay: self-cleavage kobs at 10000 uM GlcN6P; higher = faster cleavage; RNA array
Summary of the method: as §1

Variant | self-cleavage kobs at 40 uM GlcN6P [1] [s⁻¹] | self-cleavage kobs at 160 uM GlcN6P [2] [s⁻¹] | self-cleavage kobs at 640 uM GlcN6P [3] [s⁻¹] | self-cleavage kobs at 2500 uM GlcN6P [4] [s⁻¹] | self-cleavage kobs at 10000 uM GlcN6P [5] [s⁻¹]
A53U C67G | 3.3e-05 ± 8.7e-06 | 7.53e-05 ± 2e-05 | 0.000519 ± 0.00012 | 0.000628 ± 0.0001 | 0.00224 ± 0.00024
A42U A52C | < 1e-05 | < 1e-05 | < 1e-05 | < 1e-05 | 
U54A C61U G62A | < 1e-05 |  | < 1e-05 |  | < 1e-05
G9A G13C U45G U57A | < 1e-05 |  |  |  | < 1e-05
A14U G43A C61G U65A | < 1e-05 |  |  |  | < 1e-05
G32C A39G G43A | < 1e-05 |  |  |  | 
G7A A14C G32U G40A | < 1e-05 |  |  | < 1e-05 | 
C10A U47A | < 1e-05 | < 1e-05 | < 1e-05 |  | 
C34A A64U | < 1e-05 | < 1e-05 | < 1e-05 |  | < 1e-05
C10A A64U | < 1e-05 |  | < 1e-05 | < 1e-05 | < 1e-05
C8G G41U | < 1e-05 | < 1e-05 | < 1e-05 | < 1e-05 | < 1e-05
C11U C50G | 0.000107 ± 2.2e-05 | 0.000271 ± 6.5e-05 | 0.000371 ± 9e-05 | 0.000104 ± 2.1e-05 | 
U54A C67A | 0.000554 ± 0.00013 | 0.000242 ± 4.9e-05 | 0.00148 ± 0.00034 | 0.00137 ± 0.00037 | 0.00561 ± 0.0016
A14U A33C G35C U55C | < 1e-05 |  |  |  | < 1e-05
G9U C58A | < 1e-05 |  |  |  | < 1e-05
A12C C34U G44C U56A U57A | < 1e-05 |  |  |  | < 1e-05
G29C G60U C61A | < 1e-05 |  | < 1e-05 |  | 
G38U U57G C67U C70U | 8e-05 ± 2.6e-05 |  | 0.000114 ± 4.7e-05 | 0.0013 ± 0.00059 | 4.29e-05 ± 1.9e-05
G41A A64C | < 1e-05 | < 1e-05 | < 1e-05 | < 1e-05 | < 1e-05
A12G A36C | < 1e-05 | < 1e-05 | < 1e-05 | < 1e-05 | 
C11G G60U | < 1e-05 | < 1e-05 | < 1e-05 |  | < 1e-05
C8A G37A | < 1e-05 |  |  |  | < 1e-05

Variant | self-cleavage kobs at 40 uM GlcN6P [1] [s⁻¹] | self-cleavage kobs at 160 uM GlcN6P [2] [s⁻¹] | self-cleavage kobs at 640 uM GlcN6P [3] [s⁻¹] | self-cleavage kobs at 2500 uM GlcN6P [4] [s⁻¹] | self-cleavage kobs at 10000 uM GlcN6P [5] [s⁻¹]
C8U G41A | < 1e-05 | < 1e-05 | < 1e-05 | < 1e-05 | < 1e-05
G7C C11U G40U C71A | < 1e-05 |  | < 1e-05 | < 1e-05 | < 1e-05
A6G U56A U65C | < 1e-05 |  |  |  | 
G35U A53U C61G C68G | 0.000579 ± 0.00022 |  |  |  | 0.000516 ± 0.0002
G9U A14C A52C | < 1e-05 |  |  | < 1e-05 | < 1e-05
A15U U30C G51C | < 1e-05 |  |  |  | 
A12U A42U G59C | < 1e-05 |  |  |  | 
U31G G35U | < 1e-05 | < 1e-05 | < 1e-05 | < 1e-05 | < 1e-05
A6G A14G G29C G38A A39G G40A A42U U54C U56A G60C | < 1e-05 |  |  |  | 
U30C C50G U69A | 0.000101 ± 1.6e-05 |  |  |  | 0.000171 ± 2.6e-05
A6G G40U A48C G62A U65G | < 1e-05 |  |  |  | < 1e-05
G9U G32U G41U A53C | < 1e-05 |  |  |  | < 1e-05
C11A A39G U45A A52U | < 1e-05 |  |  |  | 
C50G C58A C70U | 9.84e-05 ± 1.6e-05 |  |  | 0.000176 ± 4e-05 | 0.000117 ± 2.1e-05
C8A U56A | < 1e-05 | < 1e-05 | < 1e-05 | < 1e-05 | < 1e-05
C8U G32C | < 1e-05 | < 1e-05 | < 1e-05 | < 1e-05 | < 1e-05
C10A C61U | < 1e-05 |  |  | < 1e-05 | 
C34A C50G C71U | 6.66e-05 ± 3e-05 | 0.000155 ± 6.7e-05 | 0.000408 ± 0.0001 | 0.000247 ± 0.00012 | 6.4e-05 ± 2.5e-05
G51A G63U | < 1e-05 |  |  |  | < 1e-05
U46A G60C | < 1e-05 | < 1e-05 | < 1e-05 | < 1e-05 | < 1e-05
C10A A36U | < 1e-05 | < 1e-05 | < 1e-05 | < 1e-05 | < 1e-05
